In US20250243243A1 (HONG KONG UNIVERSITY OF SCIENCE AND TECHNOLOGY, published 2025):
Where no end group is shown, it is not given here.

Legend:
[1] = target: T1, GST (UniProt P08515 1-218 = GST); test: pull-down on beads carrying peptides of the predicted first luminal loop of SURF4, purified prey, anti-GST immunoblot
T1 construct: Control protein purified from E. coli; also called GST alone; purified GST

[2] = target: T2, CW peptides (KRRHPKKC) (C-terminal cysteine added for coupling to thiopyridone-Sepharose 6B beads (pull-down)); test: ITC, 500 µM CW peptide injected into 50 µM GST-SURF4 (49-60), one set of sites model
T2 construct: CW motif of Shh (mouse residues 33-39, human 32-38) plus an added C-terminal Cys; On beads in the pull-downs, free in solution in ITC; also called Cardin-Weintraub peptide; synthetic CW peptides
T2 peptide: KRRHPKKC
Procedure: We utilized a commercial isothermal titration calorimeter (PEAQ-ITC system, MicroCal, Malvern Panalytical, United Kingdom) to perform titration experiments. […] During each ITC experiment, 19 injections of CW peptide into the calorimetric cell were carried out while duration of each injection was 4 s and the time between the injections was 150 s. The volume of each injection was 2 μL and the stirring speed was maintained at 750 rpm. Control experiments such as peptide to buffer and buffer to protein titrations were also done to account for non-specific interactions and heat of dilution. The binding constant (Kd) was derived by fitting the data with one set of site model using the MicroCal PEAQ-ITC analysis software.

[3] = target: T3, ShhN^1-198-HA (mouse, UniProt Q62226 25-198); test: quantification of the co-immunoprecipitation (n=3)
T3 construct: also called ShhN-HA; not shown: C-terminal 3xHA tag
T3 sequence (Q62226 25-198): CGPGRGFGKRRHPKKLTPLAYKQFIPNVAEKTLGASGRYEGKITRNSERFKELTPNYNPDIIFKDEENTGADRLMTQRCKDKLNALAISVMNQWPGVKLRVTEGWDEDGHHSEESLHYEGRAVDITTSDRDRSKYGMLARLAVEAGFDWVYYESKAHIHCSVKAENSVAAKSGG
Excerpt: FIG. 3D. […] FIG. 3E. […] FIG. 3F. […] FIG. 3G. […] FIG. 3O.

T1 sequence (P08515 whole entry): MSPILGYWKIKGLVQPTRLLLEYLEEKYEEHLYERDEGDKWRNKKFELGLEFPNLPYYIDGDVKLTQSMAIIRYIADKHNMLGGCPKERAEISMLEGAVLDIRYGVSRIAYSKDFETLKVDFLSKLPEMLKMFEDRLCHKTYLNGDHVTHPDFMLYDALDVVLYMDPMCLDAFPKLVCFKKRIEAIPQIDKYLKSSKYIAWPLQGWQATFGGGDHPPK

B1: SURF4 luminal peptides (SEQRDYIDTTWNC) (peptide)
peptide: SEQRDYIDTTWNC
modifications: not fully specified (residue 13)
notes: Immobilised on beads as bait; also called SURF4^49-61 peptides; SURF4 peptide
- binding result [1]: no binding

B2: GST-SURF4^49-60 (other)
chain: {GST}-SEQRDYIDTTWN
modifications: also: GST tag linker not given here
notes: Purified from E. coli; also called N-terminal GST-tagged SURF4^49-60; GST-tagged SURF4^49-60; not shown: glutathione S-transferase (GST) tag, N-terminal
- Kd [2]: 2.35 µM

B3: SURF4^ED-AA-Myc (receptor)
chain: GQNDLMGTAEDFADQFLRVTKQYLPHVARLCLISTFLEDGIRMWFQWSAQRAYIATTWNCGYLLASSFVFLNLLGQLTGCVLVLSRNFVQYACFGLFGIIALQTIAYSILWDLKFLMRNLALGGGLLLLLAESRSEGKSMFAGVPTMRESSPKQYMQLGGRVLLVLMFMTLLHFDASFFSIVQNIVGTALMILVAIGFKTKLAALTLVVWLFAINVYFNAFWTIPVYKPMHDFLKYDFFQTMSVIGGLLLVVALGPGGVSMDEKKKEW
notes: SURF4-3xMyc with E50, D53 and D56 changed to alanine; also called Myc-tagged SURF4^ED-AA; not shown: C-terminal 3xMyc tag
- binding result [3]: binds
